# Data: IntAct's records for PubMed 29892012
# B1: E3 ubiquitin-protein ligase LNX (Homo sapiens), Q8TBB1 (parent)
# chain: MNQPESANDPEPLCAVCGQAHSLEENHFYSYPEEVDDDLICHICLQALLDPLDTPCGHTYCTLCLTNFLVEKDFCPMDRKPLVLQHCKKSSILVNKLLNKLLVTCPFREHCTQVLQRCDLEHHFQTSCKGASHYGLTKDRKRRSQDGCPDGCASLTATAPSPEVSAAATISLMTDEPGLDNPAYVSSAEDGQPAISPVDSGRSNRTRARPFERSTIRSRSFKKINRALSVLRRTKSGSAVANHADQGRENSENTTAPEVFPRLYHLIPDGEITSIKINRVDPSESLSIRLVGGSETPLVHIIIQHIYRDGVIARDGRLLPGDIILKVNGMDISNVPHNYAVRLLRQPCQVLWLTVMREQKFRSRNNGQAPDAYRPRDDSFHVILNKSSPEEQLGIKLVRKVDEPGVFIFNVLDGGVAYRHGQLEENDRVLAINGHDLRYGSPESAAHLIQASERRVHLVVSRQVRQRSPDIFQEAGWNSNGSWSPGPGERSNTPKPLHPTITCHEKVVNIQKDPGESLGMTVAGGASHREWDLPIYVISVEPGGVISRDGRIKTGDILLNVDGVELTEVSRSEAVALLKRTSSSIVLKALEVKEYEPQEDCSSPAALDSNHNMAPPSDWSPSWVMWLELPRCLYNCKDIVLRRNTAGSLGFCIVGGYEEYNGNKPFFIKSIVEGTPAYNDGRIRCGDILLAVNGRSTSGMIHACLARLLKELKGRITLTIVSWPGTFL
# partner: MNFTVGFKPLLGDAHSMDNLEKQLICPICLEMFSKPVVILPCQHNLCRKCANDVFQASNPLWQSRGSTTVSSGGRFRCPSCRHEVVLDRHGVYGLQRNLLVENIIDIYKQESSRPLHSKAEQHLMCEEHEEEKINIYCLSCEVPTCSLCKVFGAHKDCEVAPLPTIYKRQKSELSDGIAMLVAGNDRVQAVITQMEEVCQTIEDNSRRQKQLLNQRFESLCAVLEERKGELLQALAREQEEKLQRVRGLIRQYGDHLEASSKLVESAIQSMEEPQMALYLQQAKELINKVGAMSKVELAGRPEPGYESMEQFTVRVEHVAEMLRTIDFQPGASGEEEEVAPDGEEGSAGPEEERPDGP
# B2: E3 ubiquitin-protein ligase LNX (Homo sapiens), Q8TBB1 (parent)
# chain: B1 chain
# partner: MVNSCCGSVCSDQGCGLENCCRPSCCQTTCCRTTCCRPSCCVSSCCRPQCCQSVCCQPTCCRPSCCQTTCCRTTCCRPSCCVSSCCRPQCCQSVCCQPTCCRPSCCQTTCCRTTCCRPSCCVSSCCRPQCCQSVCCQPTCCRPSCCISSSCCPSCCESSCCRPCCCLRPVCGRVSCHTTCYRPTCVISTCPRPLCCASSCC
# B3: BRCA1-A complex subunit RAP80 (Homo sapiens), Q96RL1 (parent)
# chain: MPRRKKKVKEVSESRNLEKKDVETTSSVSVKRKRRLEDAFIVISDSDGEEPKEENGLQKTKTKQSNRAKCLAKRKIAQMTEEEQFALALKMSEQEAREVNSQEEEEEELLRKAIAESLNSCRPSDASATRSRPLATGPSSQSHQEKTTDSGLTEGIWQLVPPSLFKGSHISQGNEAEEREEPWDHTEKTEEEPVSGSSGSWDQSSQPVFENVNVKSFDRCTGHSAEHTQCGKPQESTGRGSAFLKAVQGSGDTSRHCLPTLADAKGLQDTGGTVNYFWGIPFCPDGVDPNQYTKVILCQLEVYQKSLKMAQRQLLNKKGFGEPVLPRPPSLIQNECGQGEQASEKNECISEDMGDEDKEERQESRASDWHSKTKDFQESSIKSLKEKLLLEEEPTTSHGQSSQGIVEETSEEGNSVPASQSVAALTSKRSLVLMPESSAEEITVCPETQLSSSETFDLEREVSPGSRDILDGVRIIMADKEVGNKEDAEKEVAISTFSSSNQVSCPLCDQCFPPTKIERHAMYCNGLMEEDTVLTRRQKEAKTKSDSGTAAQTSLDIDKNEKCYLCKSLVPFREYQCHVDSCLQLAKADQGDGPEGSGRACSTVEGKWQQRLKNPKEKGHSEGRLLSFLEQSEHKTSDADIKSSETGAFRVPSPGMEEAGCSREMQSSFTRRDLNESPVKSFVSISEATDCLVDFKKQVTVQPGSRTRTKAGRGRRRKF
# partner: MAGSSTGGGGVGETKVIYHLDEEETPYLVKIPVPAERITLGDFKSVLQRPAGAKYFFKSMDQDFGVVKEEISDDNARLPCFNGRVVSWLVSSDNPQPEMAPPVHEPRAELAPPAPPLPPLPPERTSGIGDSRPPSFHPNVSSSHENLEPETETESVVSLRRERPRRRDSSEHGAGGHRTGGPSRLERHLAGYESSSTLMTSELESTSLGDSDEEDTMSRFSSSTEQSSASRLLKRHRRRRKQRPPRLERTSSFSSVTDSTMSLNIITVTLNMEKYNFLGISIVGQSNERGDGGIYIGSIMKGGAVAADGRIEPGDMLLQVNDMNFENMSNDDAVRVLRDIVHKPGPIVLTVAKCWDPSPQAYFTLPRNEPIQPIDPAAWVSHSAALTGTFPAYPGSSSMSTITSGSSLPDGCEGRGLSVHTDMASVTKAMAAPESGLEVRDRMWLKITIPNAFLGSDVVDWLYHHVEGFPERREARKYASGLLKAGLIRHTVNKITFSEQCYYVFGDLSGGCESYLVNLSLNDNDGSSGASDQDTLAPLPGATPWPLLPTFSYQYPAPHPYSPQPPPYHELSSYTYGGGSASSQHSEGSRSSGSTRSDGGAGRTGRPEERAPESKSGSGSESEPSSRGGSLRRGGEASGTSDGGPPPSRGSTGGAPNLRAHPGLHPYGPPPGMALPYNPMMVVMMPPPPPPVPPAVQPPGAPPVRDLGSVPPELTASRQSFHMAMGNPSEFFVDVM
# B4: E3 ubiquitin-protein ligase LNX (Homo sapiens), Q8TBB1 (parent)
# chain: B1 chain
# partner: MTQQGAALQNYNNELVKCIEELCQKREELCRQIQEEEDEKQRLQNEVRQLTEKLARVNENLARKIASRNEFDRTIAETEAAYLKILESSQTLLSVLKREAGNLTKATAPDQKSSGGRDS
# B5: E3 ubiquitin-protein ligase LNX (Homo sapiens), Q8TBB1 (parent)
# chain: B1 chain
# partner: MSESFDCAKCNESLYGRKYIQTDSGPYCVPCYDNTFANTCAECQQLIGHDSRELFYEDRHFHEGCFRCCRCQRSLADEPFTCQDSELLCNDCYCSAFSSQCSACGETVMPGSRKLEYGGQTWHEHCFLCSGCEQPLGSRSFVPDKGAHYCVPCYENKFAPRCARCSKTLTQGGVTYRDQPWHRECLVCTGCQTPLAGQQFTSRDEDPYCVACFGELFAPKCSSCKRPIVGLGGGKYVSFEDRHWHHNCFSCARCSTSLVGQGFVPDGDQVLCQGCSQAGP
# B6: Ceramide transfer protein (Homo sapiens), Q9Y5P4 (parent)
# chain: MSDNQSWNSSGSEEDPETESGPPVERCGVLSKWTNYIHGWQDRWVVLKNNALSYYKSEDETEYGCRGSICLSKAVITPHDFDECRFDISVNDSVWYLRAQDPDHRQQWIDAIEQHKTESGYGSESSLRRHGSMVSLVSGASGYSATSTSSFKKGHSLREKLAEMETFRDILCRQVDTLQKYFDACADAVSKDELQRDKVVEDDEDDFPTTRSDGDFLHSTNGNKEKLFPHVTPKGINGIDFKGEAITFKATTAGILATLSHCIELMVKREDSWQKRLDKETEKKRRTEEAYKNAMTELKKKSHFGGPDYEEGPNSLINEEEFFDAVEAALDRQDKIEEQSQSEKVRLHWPTSLPSGDAFSSVGTHRFVQKPYSRSSSMSSIDLVSASDDVHRFSSQVEEMVQNHMTYSLQDVGGDANWQLVVEEGEMKVYRREVEENGIVLDPLKATHAVKGVTGHEVCNYFWNVDVRNDWETTIENFHVVETLADNAIIIYQTHKRVWPASQRDVLYLSVIRKIPALTENDPETWIVCNFSVDHDSAPLNNRCVRAKINVAMICQTLVSPPEGNQEISRDNILCKITYVANVNPGGWAPASVLRAVAKREYPKFLKRFTSYVQEKTAGKPILF
# B7: Centrosomal protein POC5 (Homo sapiens), Q8NA72 (parent)
# chain: MSSDEEKYSLPVVQNDSSRGSSVSSNLQEEYEELLHYAIVTPNIEPCASQSSHPKGELVPDVRISTIHDILHSQGNNSEVRETAIEVGKGCDFHISSHSKTDESSPVLSPRKPSHPVMDFFSSHLLADSSSPATNSSHTDAHEILVSDFLVSDENLQKMENVLDLWSSGLKTNIISELSKWRLNFIDWHRMEMRKEKEKHAAHLKQLCNQINELKELQKTFEISIGRKDEVISSLSHAIGKQKEKIELMRTFFHWRIGHVRARQDVYEGKLADQYYQRTLLKKVWKVWRSVVQKQWKDVVERACQARAEEVCIQISNDYEAKVAMLSGALENAKAEIQRMQHEKEHFEDSMKKAFMRGVCALNLEAMTIFQNRNDAGIDSTNNKKEEYGPGVQGKEHSAHLDPSAPPMPLPVTSPLLPSPPAAVGGASATAVPSAASMTSTRAASASSVHVPVSALGAGSAATAASEEMYVPRVVTSAQQKAGRTITARITGRCDFASKNRISSSLAIMGVSPPMSSVVVEKHHPVTVQTIPQATAAKYPRTIHPESSTSASRSLGTRSAHTQSLTSVHSIKVVD
# partner: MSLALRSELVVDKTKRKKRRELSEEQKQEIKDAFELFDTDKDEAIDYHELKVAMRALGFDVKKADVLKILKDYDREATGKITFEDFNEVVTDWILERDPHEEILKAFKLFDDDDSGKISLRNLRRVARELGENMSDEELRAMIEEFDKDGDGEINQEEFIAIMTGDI
# B8: E3 ubiquitin-protein ligase LNX (Homo sapiens), Q8TBB1 (parent)
# chain: B1 chain
# partner: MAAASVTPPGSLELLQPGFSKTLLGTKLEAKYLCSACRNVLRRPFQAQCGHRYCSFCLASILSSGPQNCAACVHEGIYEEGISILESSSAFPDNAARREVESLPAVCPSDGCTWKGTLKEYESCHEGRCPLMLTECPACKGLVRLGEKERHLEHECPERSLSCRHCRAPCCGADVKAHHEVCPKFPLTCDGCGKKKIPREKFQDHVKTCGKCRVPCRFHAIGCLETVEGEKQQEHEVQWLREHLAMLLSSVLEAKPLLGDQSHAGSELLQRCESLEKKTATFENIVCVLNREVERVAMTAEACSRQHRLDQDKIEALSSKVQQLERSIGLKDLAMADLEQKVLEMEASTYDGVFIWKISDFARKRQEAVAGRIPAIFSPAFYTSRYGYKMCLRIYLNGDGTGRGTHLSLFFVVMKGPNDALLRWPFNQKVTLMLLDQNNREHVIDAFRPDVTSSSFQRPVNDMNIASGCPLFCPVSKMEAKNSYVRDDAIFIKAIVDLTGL
# Variants of: B1
# Conditions: with tri54_human TRIM54, Q9BYV2
row,Variant,effect of a mutation on the interaction
1,E295K,disrupting interaction strength

# Variants of: B2
# Conditions: with kr412_human KRTAP4-12, Q9BQ66
row,Variant,effect of a mutation on the interaction
1,E295K,disrupting interaction strength

# Variants of: B3
# Conditions: with dvl2_human DVL2, O14641
row,Variant,effect of a mutation on the interaction
1,Q631E,with no effect

# Variants of: B3
# Conditions: with dvl2_human DVL2, O14641
# Remark: another data set of the same source
row,Variant,effect of a mutation on the interaction
1,R34H,disrupting interaction strength

# Variants of: B4
# Conditions: with ssna1_human SSNA1, O43805
row,Variant,effect of a mutation on the interaction
1,E295K,disrupting interaction strength

# Variants of: B5
# Conditions: with fhl3_human FHL3, Q13643
row,Variant,effect of a mutation on the interaction
1,E295K,disrupting interaction strength

# Variants of: B6
# Conditions: with ar6p1_human ARL6IP1, Q15041
# Sequence of ar6p1_human ARL6IP1, Q15041 (Q15041 whole entry): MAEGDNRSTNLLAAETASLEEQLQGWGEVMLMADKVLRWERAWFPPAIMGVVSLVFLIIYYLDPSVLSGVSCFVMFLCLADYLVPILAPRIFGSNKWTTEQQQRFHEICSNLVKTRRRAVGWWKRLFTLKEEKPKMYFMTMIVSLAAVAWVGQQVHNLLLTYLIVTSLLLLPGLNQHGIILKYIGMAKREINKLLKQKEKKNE
row,Variant,effect of a mutation on the interaction
1,T166A,with no effect

# Variants of: B6
# Conditions: with rtn3_human RTN3, O95197
# Sequence of rtn3_human RTN3, O95197 (O95197 whole entry): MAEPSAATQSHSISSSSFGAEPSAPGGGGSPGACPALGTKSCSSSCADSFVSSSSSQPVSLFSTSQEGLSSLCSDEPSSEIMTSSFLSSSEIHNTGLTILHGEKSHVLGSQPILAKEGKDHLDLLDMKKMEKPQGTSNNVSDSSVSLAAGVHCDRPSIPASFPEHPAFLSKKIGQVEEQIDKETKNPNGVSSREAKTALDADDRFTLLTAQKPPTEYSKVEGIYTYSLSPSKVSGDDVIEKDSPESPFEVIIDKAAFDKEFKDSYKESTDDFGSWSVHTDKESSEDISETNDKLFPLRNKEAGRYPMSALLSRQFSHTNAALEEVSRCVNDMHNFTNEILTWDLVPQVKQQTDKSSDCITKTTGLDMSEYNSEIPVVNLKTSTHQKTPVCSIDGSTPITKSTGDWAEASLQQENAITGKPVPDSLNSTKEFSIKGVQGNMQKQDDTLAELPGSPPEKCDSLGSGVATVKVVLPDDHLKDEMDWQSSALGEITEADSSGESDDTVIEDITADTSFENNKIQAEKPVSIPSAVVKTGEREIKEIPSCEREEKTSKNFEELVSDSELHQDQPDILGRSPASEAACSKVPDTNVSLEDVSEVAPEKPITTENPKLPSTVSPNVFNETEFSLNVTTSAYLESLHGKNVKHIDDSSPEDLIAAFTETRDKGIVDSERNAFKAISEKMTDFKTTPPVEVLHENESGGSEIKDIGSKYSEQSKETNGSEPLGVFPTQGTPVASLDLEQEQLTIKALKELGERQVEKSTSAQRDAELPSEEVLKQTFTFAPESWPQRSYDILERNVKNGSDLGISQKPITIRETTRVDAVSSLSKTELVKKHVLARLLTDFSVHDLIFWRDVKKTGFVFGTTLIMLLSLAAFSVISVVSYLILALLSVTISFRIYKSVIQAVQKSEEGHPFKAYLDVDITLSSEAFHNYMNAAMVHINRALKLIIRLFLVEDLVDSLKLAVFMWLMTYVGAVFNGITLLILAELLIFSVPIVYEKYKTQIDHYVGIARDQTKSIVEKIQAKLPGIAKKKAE
row,Variant,effect of a mutation on the interaction
1,T166A,with no effect

# Variants of: B6
# Conditions: with rtn4_human RTN4, Q9NQC3
# Sequence of rtn4_human RTN4, Q9NQC3 (Q9NQC3 whole entry): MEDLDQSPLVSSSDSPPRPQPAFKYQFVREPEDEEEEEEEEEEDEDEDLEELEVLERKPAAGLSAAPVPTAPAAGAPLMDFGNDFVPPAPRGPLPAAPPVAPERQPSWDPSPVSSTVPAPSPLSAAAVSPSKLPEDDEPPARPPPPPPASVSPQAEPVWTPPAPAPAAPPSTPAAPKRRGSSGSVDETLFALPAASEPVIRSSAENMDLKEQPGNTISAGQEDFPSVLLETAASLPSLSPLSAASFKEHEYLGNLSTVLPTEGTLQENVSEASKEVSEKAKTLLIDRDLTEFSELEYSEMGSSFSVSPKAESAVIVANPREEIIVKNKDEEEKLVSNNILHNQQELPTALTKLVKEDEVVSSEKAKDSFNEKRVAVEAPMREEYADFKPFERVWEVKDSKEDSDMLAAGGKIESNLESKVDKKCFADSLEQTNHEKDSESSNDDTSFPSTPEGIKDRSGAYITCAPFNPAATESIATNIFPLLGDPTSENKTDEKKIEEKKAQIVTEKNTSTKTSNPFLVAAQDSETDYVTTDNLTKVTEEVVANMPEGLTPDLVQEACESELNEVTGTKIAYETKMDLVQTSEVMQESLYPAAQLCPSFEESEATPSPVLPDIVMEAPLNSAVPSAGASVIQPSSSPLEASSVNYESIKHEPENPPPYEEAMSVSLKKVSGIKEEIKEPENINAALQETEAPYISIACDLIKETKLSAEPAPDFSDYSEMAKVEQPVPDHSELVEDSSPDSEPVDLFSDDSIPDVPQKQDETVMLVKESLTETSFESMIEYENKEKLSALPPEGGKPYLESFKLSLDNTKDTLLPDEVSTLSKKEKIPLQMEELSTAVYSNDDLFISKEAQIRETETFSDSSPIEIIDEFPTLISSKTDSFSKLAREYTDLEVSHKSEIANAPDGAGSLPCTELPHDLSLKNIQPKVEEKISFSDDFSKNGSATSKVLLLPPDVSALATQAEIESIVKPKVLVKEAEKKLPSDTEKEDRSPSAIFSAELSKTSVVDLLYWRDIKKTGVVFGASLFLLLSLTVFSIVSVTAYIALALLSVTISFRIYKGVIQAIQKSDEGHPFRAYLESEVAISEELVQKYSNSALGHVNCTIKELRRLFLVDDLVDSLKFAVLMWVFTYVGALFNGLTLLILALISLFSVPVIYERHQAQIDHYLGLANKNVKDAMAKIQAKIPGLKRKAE
row,Variant,effect of a mutation on the interaction
1,T166A,with no effect

# Variants of: B7
# Conditions: with cetn3_human CETN3, O15182
row,Variant,effect of a mutation on the interaction
1,MSSDEEKYSLPVVQNDSSRGSSVSSNLQEEYEELLHYAIVTPNIEPCASQSSHPKGELVPDVRISTIHDILHSQGNNSEVRETAIEVGKGCDFHISSHSKTDESSPVLSPRKPSHPVMDFFSSHLLADSSSPATNSSHTDAHEILVSDFLVSDENLQKMENVLDLWSSGLKTNIISELSKWRLNFIDWHRMEMRKEKEKHAAHLKQLCNQINELKELQKTFEISIGRKDEVISSLSHAIGKQKEKIELMRTFFHWRIGHVRARQDVYEGKLADQYYQRTLLKKVWKVWRSVVQKQWKDVVERACQARAEEVCIQISNDYEAKVAMLSGALENAKAEIQRMQHEKEHFEDSMKKAFMRGVCALNLEAMTIFQNRNDAGIDSTNNKKEEYGPGVQGKEHSAHLDPSAPPMPLPVTSPLLPSPPAAVGGASATAVPSAASMTSTRAASASSVHVPVSALGAGSAATAASEETYVPRVVTSAQQKAGRTITARITGRCDFASKNRISSSLAIMGVSPPMSSVVVEKHHPVTVQTIPQATAAKYPRTIHPESSTSASRSLGTRSAHTQSLTSVHSIKVVD [M469T],with no effect

# Variants of: B8
# Conditions: with traf2_human TRAF2, Q12933
row,Variant,effect of a mutation on the interaction
1,E295K,disrupting interaction strength
